Test: soluble on expression in E. coli; label from the status in PepcDB or PDB records

Row | Sequence | soluble on expression in E. coli
1 | MGSDKIHHHHHHENLYFQGMGTDKFNNIKIDKYENLINVLKTGDIFLCSGNYLVSKLIKKVSESMFSHTGIIVKWGEHTLIMESVEDDGVRIVPLEHYIKNYENSNNRYNGSLFIARHELLQNVNDDSEMIRNLIKVGFSLLNSGYDKNEIAQIVARIGLGIGRHEDNNEYICSEFVNECFKKIGVEFLTDSEGFIFPEHIAADHHVLPIAQIE | soluble
2 | MGSDKIHHHHHHMLNLEQLNAFIAAVEKGSFSAAARHIGKSQSSVSIGVNNLELDLGVELFDRSTKYPQLTEQGERLYHQAKALMRQATRMESYAKGVIEAVEDQLVIGADPLVPMSVFDSALEKMAEKFPFTRVKLVKLTGNHLNRAIEADEVDVGFNIMSEAVPENLDFIGIARIEWVCICSPDYKFADLEAVDSEMLINERQIVCSSMLQNEYLAKLGRVSQETWEASDLDDMIRLVEQGIGWGIIPLSMYEEKAAIGTLSTFKPVIEKETGLITVDLLWKSTAQLGPAKSFFIDLLKR | not soluble
3 | SLSGNGFDAILALSHRTSHTTYGNPFFSDVIQSISAVSEQNNFDLILQTAKTPEEELEKCAKKIQEKMIRGIIILSSTMDETLLFELDQYNIPIVVIGKVGNDYTNIYSVDTDNFQDSYDLVETLIKNGHRHIGCLHAPTEVYVSNDRLNGYRQCLFDHHLDIRNEWIIDGGFRLEDSMAAMNDLMKLRERPTAIFSTDALKSLSIYKVAEQSGKQIPDDLSIAGFSDPLLSSLFSPQLTRIDIPTNQLGIKATELLFQLIHHQYPEEKRIILSTEITLTDSI | soluble
4 | MGSDKIHHHHHHAEEQVYSESEVSTVLSKLEKEAISEAAAEQYTVVDRKEDAWGMKHLKLEKQTEGVTVDSDNVIIHLDRNGAVTSVTGNPVDQVVKIQSVDAIGEEGVKKIIASDNPETKDLVFLAIDKRVNNEGQLFYKVRVTSSPTGDPVSLVYKVNATDGTIMEKQDLTEHVGSEVTLKNSFQVAFNVPVEKSNTGIALHGTDNTGVYHAVVDGKNNYSIIQAPSLVALNQNAVDAYTHGKFVKTYYEDHFQRHSIDDRGMPILSVVDEQHPDAYDNAFWDGKAMRYGETSTPTGKTYASSLDVVGHEMTHGVTEHTAGLEYLGQSGALNESYSDLMGYIISGASNPEIGADTQSVDRKTGIRNLQTPSKHGQPETMAQYDDRARYKGTPYYDQGGVHYNSGIINRIGYTIIQNLGIEKAQTIFYSSLVNYLTPKAQFSDARDAMLAAAKVQYGDEAASVVSAAFNSAGIGAKEDIQVNQPSESVLVNE | not soluble
5 | MSLPRLGIILHGVTGRMGYNQHLVRSILAIRDRGGITLQSGERLEIDPIIVGRNRDKMEQLAKRHDIARWSTDLDAALADPNDQIFFDAGTTLMRAELIGRALDAGKHVYCEKPISDDLRTAVKLARKARASGLKHGVVQDKLFLPGLRKLALLRDSGFFGKILSVRGEFGYWVFEGDWGVPAQRPSWNYRKKDGGGIILDMLCHWRYVLDNLFGEVKAVSCLGATHIPSRIDEQGRAYDCDTDDAAYATFELEGGIVAHINSSWAVRVRRDDLVTFQVDGTHGSAVAGLTKCWTQHRVNTPKPVWNPDQPQTIDFYRTWDEVPDTQAFDNGFKAQWEMFLRHVAEDGPWPHGLEAGAKGVQLAELGLKSWAERRWLDVPELEGHHHHHH | not soluble
6 | KTKALIIEDKTLTDDQRKEQLLGVDTEYAKGIENIDAAKDAAGVDKAYSDGVRDILAQYKEGQNLNDRRNAAKEFL | not soluble
7 | GPGSMGSKYDRVKVKVHLDDEHYYILSRFILSKMLTACKLPTTAAVCVSLALKKSLVDQERLDISQRELEAATLSTMAQHGYGAAFTRLLPVMTRFFIERTPLIVFMAGSGCCGKTSMARSLSVRLNTHNIVSTDLLLDILRATHHAYPSSALRGDLVELSDERVLPCVSEHSLWLSDTLAVDDFVRLWRTLTRAIRSLVEGEVEKALVEGKVLIVEGSLIDLSLYHNYLLDSFQSQRGVIAVAFHISSDEMSRNFAVERLVSTYRSVLPLSYTDNYNGALEWVQCRLRAIEGEHLRVLRGDSSAMQLHCIDDSLCDPATGDSTSVRDLSESYSNETSSTCDTRQLRLSQDNAEIVPVYGVTNSMAASSRVCESMHGLILDRIISALKQKGPLNLEHGNVVWCQAMDSEYMSPTNDT | not soluble
8 | MKHLFTRIFLFHLLLIGTVQVTAQNKKSGNPILPGFHADPEVLYSHQTKRYYIYPTSDGFPGWGGSYFKVFSSKNLKTWKEETVILEMGKNVSWANGNAWAPCIEEKKIDGKYKYFFYYSANPTTNKGKQIGVAVADSPTGPFTDLGKPIITSSPTGRGQQIDVDVFTDPVSGKSYLYWGNGYMAGAELNDDMLSIKEETTVVLTPKGGTLQTYAYREAPYVIYRKGIYYFFWSVDDTGSPNYHVVYGTAQSPLGPIEVAKEPIVLIQNPKEEIYGPAHNSILQVPGKDKWYIVYHRINKNHLNDGPGWHREVCIDRMEFNPDGTIKQVIPTP | not soluble
9 | MNINLETAEQHAVQAYSDKKIQINSIIYESSLIVSKKEIITDFVIKDIQDINNSYIDLLLRSKPELIIIGHLQTGKTLPATLISQLSQKRIGIECMSIGAACRTYNVLLSEHRAVVAGFIFLEHHHHHH | not soluble
10 | MGSDKIHHHHHHCKPSKDETSSLKTADRKPLVTNLGNNVILPRYVALNTSVNAFDSEVQIFTAAPTIENLTSLRIKFYQAYIDWEYVACFEFGPAAASTVNLGTKTVNAFPADTAVIKNKIVQGVTAIPPTNSAMYSGFPAIDYLLFAKSLTAQQIVDSFTVSSTAVKRCNYLKTVSSDLKARINTTYTNWTASGANFISLYTNSTGIDLGSATSQTVNMLVADVENIKNFKLGIPLNIIQNVVVGDGSTVNPFKCEGYHSDSSLVLAKASIESLRKLYLGIGADGTDGEGFDNYLEAIDRSGLNVQIKNQIALLQAKLDAIPAPISIAIKNPAGKQAVNEAYTETLHLLVLLKVDMASAIGVMISYGDTDGD | not soluble
11 | MGSDKIHHHHHHMFNEDTKFASPYEINVLNELTGKNFQEDDLILLEKLSGMDYRKRVYVSEDQIGTLEFDLLDLTWKFIPSPLYYMIEDPKISLKYTKKRLKGKYIKEELLENPEELNEALKDNFEYIGVKIGDFLGVGVRKEDRVKVKDLSRKKELDFQKIADYLEYNKEYLDEMVENSIEILQDAVEKYKRKGYAINASFSGGKDSAVCTLISKEVIPDLDVVFIDTGLEYPETLNYVKDFVDKYDINLDTVDGDNFWDNLEKEGIPTKDNRWCNSACKLMPLKRYLKKKYGNKKVLTIDGSRKYESFTRANLDYERRSGFIDFQTNVFPILDWNSIDIWSYIYSKDIPYNPMYDKGFERIGCYLCPSALNSEFLRVKELHPDYFERWVKYLKKYFPESEVLRGFWRWDELPPKMVELEENMGVDIDKKKRLKRITQL | not soluble
12 | MGSDKIHHHHHHMKITKATDITLNDSCYLIYGNPGFGKTSVLKYIPGKTLVIDIDKSSKVLSGCENISIAEVDTHKIWDEWLNVVKELLKGAAEPFDTIVVDNVSELFRACLANLGREGKNHRVPSQADYQRVDFTILDSLRALLQLKKRIVFTAWETSDQWTDENGMIYNRAMPDIRSKILNNFLGLTDVVARLVKKTTEDGEEVRGFILQPSASVYAKNRLDDRKGCKVDELFTTELPS | not soluble
13 | MGSDKIHHHHHHMRLKVSFQAMESTVPLNYNYFLSSFIYKRLASQNENFARFLHEKGYGKRFKFFTFSQLFFENSRVSGERIFIFPGKGWWYISSPVVEFVRYMFSSLSEDPVIRVGKTEFIVKSIDIENSLPDQSEYHFVMLSPLVVSVPEENNGKLYHRYLHPGEEEFYEVFRKNLMKKYRAFYGKDPEGTVEVIPDWDYIKSRHRITKRIKLKNAFVRAVVFPFKIRGEKKLVEIGYEAGFGEKNSMGFGMVALKKYER | not soluble
14 | MTSNQLAQYIDHTALTAEKNEQDISTLCNEAIEHGFYSVCINSAYIPLAKEKLAGSNVKICTVVGFPLGANLTSVKAFETQESIKAGANEIDMVINVGWIKSQKWDEVKQDIQAVFNACNGTPLKVILETCLLTKDEIVKACEICKEIGVAFVKTSTGFNKGGATVEDVALMKNTVGNIGVKASGGVRDTETALAMIKAGATRIGASAGIAIISGTQDTQSTYLEHHHHHH | soluble
15 | MAHHHHHHMPLKFAPKALNPEDSMRLAVVHMLRHDNAVILQTFTGNRGSSATRHGRLLRFMPHFPFCPTEKTGETAEEAPHLVEIAPLQLPYWARGSSRETMWPAARTPEAVHPSPPHFPHFLAERSSSLFVSISLPHFDLPLVFASPRREQRCSRDCRAEWLPRAVMDRDVAATWDEMLSAFCAAWSAAVRIEKTPFALLPPSLSHPLLAEQPLGEGRVPLQDEPAASFRLDPIVVPRRKLDRQRSERMLPPILAVDVAGKWNDTPSVFKSQEAALQRRFLAVARTLERTTAAPSRPLIVASVETPLTSDAAGECERLELASVVVPPFMCTQRMKAGRPWREGGHAGGRDTLVQEHSESLFSRMPPCMTRATELRFPDGKHMRQTLTLRNTAKERLEKLCGLRPPRRHRQKMAECFSTSKFSIARSRELAAAALLPSTVLSAASRVKPPHCSERKRRRGDVPPPPPPLQLLPHVRATAVFAFSSWQPLTLEEEEEENNDTCCEEELKIAPWRVFPREVELQSFQQLLERRIERNGKAMRVGNDDEEEKWYHAAFVHDVNTMPLPYREVSDLVEDARLHYCYRLALHREKRRLGL | not soluble
16 | MSRLRIYTESGELIKDITDPKEIAEELQKINVLFERWRANAPLKENASDEEIINAYKHEIDRLINKYGFQSYDVIAMTPEHPKKDELRQKFLKEHTHSDFEVRYFVYGDGVFYLHPNDKVYILHCTAGDLISVPPNTKHWFDMGENPNFKCIRLFTTPEGWVAEYTGSDIAEKFPKYEEVVNGLEHHHHHH | soluble
17 | LYRKGGVYVVIGGAGYIGEAWSEYMIRRYQAQIVWIGRSQLNAAIQSKIDRLSALGPEPFYIAADAADKHSLQQAYEQVKKRHPHIHGIVHSAMVLFEQSLEKMKPEEFTAGLAAKIDVSIRMAQVFRQENVDFVLFFSSLVAHIKNVKQSHYASGCTFADAFAHQLSQSWA | not soluble
18 | MGSDKIHHHHHHLVGISHDTDQRILEQAMNMIRENGEDQLSLRKLARAIGLTTGAFYKHFATKDALLRAVTQLLSQREEAEMAQVLGQITDPEEKLLVMAAEILERFEADPHLMHFLFFNPAARDVLKVEPGQFGFYDQVIQLIKDVLRKRGITIDPQILFIQLWSFIQGYGLLIDSGITSYDPNLVRKTLKDLLEVSND | not soluble
19 | MYEPKPEHRFTFGLWTVGNVGRDPFGDAVRERLDPVYVVHKLAELGAYGVNLHDEDLIPRGTPPQERDQIVRRFKKALDETGLKVPMVTANLFSDPAFKDGAFTSPDPWVRAYALRKSLETMDLGAELGAEIYVVWPGREGAEVEATGKARKVWDWVREALNFMAAYAEDQGYGYRFALEPKPNEPRGDIYFATVGSMLAFIHTLDRPERFGLNPEFAHETMAGLNFVHAVAQALDAGKLFHIDLNDQRMSRFDQDLRFGSENLKAAFFLVDLLESSGYQGPRHFDAHALRTEDEEGVWAFARGCMRTYLILKERAEAFREDPEVKELLAAYYQEDPAALALLGPYSREKAEALKRAELPLEAKRRRGYALERLDQLAVEYLLGVRG | soluble
20 | VEREVLMNGTQAVAHAAMYADVDVVAAYPIRPYTEVMDTISKLIADGELDAEFIVAEGEHGQFETVKHASLAGARTLVGSSGVGWLYAMEAIVVTATDRAPVVAIIGNRALDDPGAYGVEHNDALMVRDVGWLLVWVDTAQEAFDTALLAYRIAEDQRVLLPLGISMDGGFLTHSEQIVRLPPRELVKNFLPPYNRGKYLVHPDNPITVAPQVNEDWVMEIRRQHEEAMERARSVIVEAYEEFKKVFGRYPGSTSDLQMPE | not soluble
